Patent US20240026407A1, “MODIFICATION OF SAPONINS” (GLAXOSMITHKLINE BIOLOGICALS SA, priority 2020, published 2024)

B1: 849 (protein, listed as Bifidobacterium merycicum)
chain: MSDNTYPSVNDLTLEEEASLTSGGDAWHLQGVEAKGIPGYMITDGPHGLRKSLASNTGETDLNDSVPATCFPPAAGLSSSWNPELIRQVGEAMGEECIQEKVAVILGPGVNIKRNPLGGRCFEYWSEDPYLAGHEAVGIVAGVQSKGVGTSLKHFAANNQETDRLRVSANISQRALREIYFPAFEHIVKTAQPWTIMCSYNRINGVHSAQNRWLLTDVLRDEWGFEGIVMSDWGADHDRVASLNAGLNLEMPPTYTDDQIVYAARDGRIQPEQLDRMAQGMIDLVNKTRAAMSVEDYRFDVDAHNEIARRAAVESMVLLKNDDAILPVSRDAKIAVIGEFARTPRYQGGGSSHITPTKMTGFLDALAERGVPVDFAPGFTLDLEPTDPALEAEAVIAARDADVVLMFLGLPEAAESEGFDRDTLDIPAKQIELLKAVAAENKNVVVILSNGSVVSVAPWANNAKGILESWLLGQAGGAALADVIFGDVSPSGKLAQSVPMDINDDPSMINWPGEEGHVDYGEGVFVGYRYYDTYGKAVDYPFGYGLSYATFEIGGVKAVKTGANTARVSATVTNTSDVDAAETVQVYVAPGKADVARPKHELKAFRKVFLKAHESAEVSFDLDESAFAYWSEKFNDWHVEAGEYGIEVGMSSRDIAGVATVALDGDGKALPLTEWSTFGEWSADPVGSKVVADVREAGERGELPKLPDNDMMRMFLGSMPINSMSTLMGESGKAISSFMLDGYAKLVG
B2: 803 (protein, listed as Penicillium italicum)
chain: MVQEKDISTADAVLASLTLEEKVSLLAGGSFWSTAAIPGKSIPSVKFSDGPNGARGSEMKGGPTSACFPCAVSLAATWNLDAIKEVGKALAEETKTKGANLLLGPTVCPHRHPLGGRNFESFSEDPFLSGMMASEYIVGLQGQGIGAAIKHFAANEQETFRNILDVTVSMRALREIYLKPFEIAIKQAKPWALMTAYNSVNGSHADCNSTLLQQILREEWKWDGLVLSDWGGTNSLVESLTAGLDLEMPGPPTVRKSELIMQALESNAIPESIINDRARAVLRFVATTTGFGPQKECKEYADDRPSHRELIRQVGREGIVLLKNEDDILPLKHTASAGSLTKIALLGFADEALIHGGGSAAVNAHHRITLAEGLRDAFKDRGLEIECAKGAHTLRKLPLMVDHVKNDEGKPGWSMQFLHPKDPAGVWRHIGEPSYTPTAPGNEGMTVRATTQFCVPASGRHYLSLSGLGPSSLKINGDEVYRQDGNCPDLMAFILTSYADIPVQYDFVAGQTYHIEVLSNPLEAYNGPSFMNGRAGFSVGFMLEAERDADLLAEAVTLASRSDIAIILTGNTAEWEAEGQDQVGFHLPRDGSQDRLVSAVAAANKSTIVVNCTGGPIAMPWIHEVKALLQAWFPGQEAGHSIADILVGDRFPSGRLPVTFPRAIEDTPAYRNFPGGFEEDGRARVRYEEGVFVGYRFYDHTPEQREKVLFPFGYGLSYTSFTLHDISLATLKDHHENHIEVRVSVSNVGKRRGTETIQVYVGRADHSEQHPWKTLVAFAQVSLDAGETREMSLELSRRDLAFYDESTEHWVVEASDYLVHVGTSVFEIASTERLHIPERIDYAL
B3: 890 (protein, listed as Arthrobacter ulcerisalmonis)
chain: MNLPLSPAVTAPAAGSPDAEALIHNLADSLSLAEQVQLLTGADVWSTHTLPSIGLSRIVLSDGPAGVRGEDFDERHDSVSLPSSSALSASWSAELAHRYGQVLGQEARRKGVHAVLGPTINLHRSPLGGRHFECMSEDPRLTATMAAGYVAGVQSMGVGATPKHYLANESETDRFTVDSVVAERPLRELYLAAFEDAITESRAWLVMSSYNSINGTTASENDLLETPLSTEWGFDGVVVSDWTGVRSVEAANAHQDLEMPGPVGHWSAKLLAAVESGQVSREAIVEKVVRILRLAARVGSLDGVSPAVAELPAALDSAAVAREVAIRGAVLIRNSAGLLPLDASALTSVALSGHNADEARTQGGGSATVMPKQNISPLMGLREALPATTSLSYTRGAKVAEGLQQFARTALHNPVSNVPGARVTFLDASGTEIFAEDRLASSLIWFGVGIPEGTAAITISTDWTAEQAGVHHLGLGTVGQARLSFNGTEVFNGELLDTTNVLGAALFDPPSTVHQIETTAGETVRIEAHYTLPPEQFIPLTAILLGEEAVVTDPQAEIDDAVAAASSADVAIVVVGTNSSIESEGFDRSNLDLPGHQNELVRAVAAANPRTIVVVNSGSPVLMPWLEDVGAVLLGWFGGQEFGRAIADILLGVAEPGGRLPTSWPAALADVPVLSTTPVEGKLEYAEGIHVGYRAWLQQQAAGGPAPAVPFGFGLGYTSFEFSAPHAPQQVQAGNDVIVHVPVRNTGSRAGREVVQVYLERPDSTVERPVRWLAGFAGTHLAPAGTESVEVRIPARAFEHYDGGWQVERGAFRILVGKHVEDDFQVLAIDVR
B4: 841 (protein, listed as Mycetocola reblochoni)
chain: MTTPRPSLEQKAALTSGRDTWHSESLDDIPVMMMTDGPHGLRQQLQDGGDALGIGNSVPATCFPPAAGLASSWNTGLVERVGVALGTEARATEIRILLGPGLNIKRSPLGGRNFEYFSEDPRVSGELAAAMVTGIQSMGVAATPKHFAVNNQETDRLRVSAEVDERALREIYLSAFERVVTVASPWAFMSSYNRINGVYASENHWLLTELLREEWGFDGLVMSDWGAVNDRVAALAAGLELEMPPTGTDQLIVDAVRTGELDEAVLDRAVDRLRLLAERTERPPLTGYDADAHDDLARSAAQESIVLLKNADVLPLDAAATPRIAVVGEFARTPRYQGGGSSRVVPTRMHSALDALTDALGLGADGLSFSPGFALDGDTPAGAADEAVAAVEAADVAVLFLGLPDGTESEGFDRTTIALPAEQLHLLERAAATTTPVVVVLSNGAVVDVASWEHHADAILEAWLLGQAGGLAIADVLLGTVSPSGKLAETIPLDLADTPSHLSFPGRDGVVVYGESVYVGYRHYDTRRLPVAYPFGFGLSYTRFEYSELEVTATGRNSWTVAATVTNVGERRGAETVQLYIGVEQDRPDRPVHELRGFAKVDLEPGESARVELPVTERDLSHWSVRDGAWRVEKGRYTVELAAHSRDVRLATTITSEGDGVVTRLNGMSTVGEWLDHPYGREQIQWFIDGVDTRFGATAPEMIVMLKQLPIAKLTTFGIGLDSARIERMCAEAAADGERHGEQP
B5: 832 (protein, listed as Arthrobotrys oligospora)
chain: MDATTLKEIEETLAQLTLEEKISLLAGKDFWRTVPLPEKQIPSIKVSDGPSGARGDTFSGGQKAAFFPSGILMGATFNPELAYETGALLGEEVKAKSASVLLAPTACCHRSPLGGRNFESYSEDPLLSGKMASGYIRGVQSRGIAATMKHFVANEQETWRLYVDETIDETTLREIYLKPFEIAMREGQPWAIMTAYNIINGVHCDSHPLALKQVLRGEWNYEGLVMSDWFGCNSMVESLLAGLDLEMPGPARKRPIKEFVEAAEKDESIRKAIDDSARRILTLIAKVGKWKDMTPEAPEYSRNDPETGKLIRRAGGEGTVLLKNEGKTLPLQPGSLKKVAFIGPNAKATVAGGGGSASLEPNYLTQPYETFVNAIKEINGDIEVPWVQGCIIDRWVPNIDVEGGFCRVGGPDSEAGLFLEWFRGYEATGEPVATTVFKTSNAFLWDSRPTSISPSEEFSVKFSGQISVPEDGKYNISLSTITASKLYLNGELLIDNWDFKERGNLMMNVGSEEVVKTIELKKGEWYPILVHNSSIWPKDSPRDPPMEEIGALGIRLGVAPVYDNAVLIAEAADAVKDADAVVIVVGLNNEWESESYDRSDTKLPNNQDDLIEEIAKVNQNVIVVNQSGAPVDMPWAENSNVKAIVQAWYAGQEAGHVIADVLLGKQNPSGKLPLTFPIKVQDNPSYFYFPGRDQKVEYTEKLMVGYRYYDTENVETRFPFGYGLSYSTFSIGEPSLSTAELTEGQTFTANIDVSNTSNVAGAEVVQLYVKRPASTSSIKRPVKELKGFKKVHLGTGETATANITVDDKSLGIWSTEAGKWVVEAGDYEVLIGTSSVQDELKPAGKITVKAAWSWI

assay: Experiment 5-1: screening of additional glucosidases for deglycosylation with purified QS-18 (0.04 mg/ml) at pH 7.5 and 30 deg C; assay type: biochemical, Quillaja saponaria; details: pH 7.5, 30 degrees C, 18 hours, LCMS/MS
Procedure: The 94 additional genes, together with positive control (DNA encoding SEQ ID No. 262) and negative control, were transformed, expressed, lysed and reacted in the same manner as described above for Experiment 4-1, except the reaction was incubated at 30 degrees C. for 18 hours.
Samples were analysed by LCMS/MS according to the procedure in Experiment 4-1.

Molecule | Experiment 5-1 % conv
B1 | 17.8%
B2 | 13.1%
B3 | 12.6%
B4 | 12.3%
B5 | 9.8%

assay: Experiment 5-2: screening of additional glucosidases for deglycosylation with QS-18 in crude bark extract (80%) at pH 6 and 35 deg C; assay type: biochemical, Quillaja saponaria; details: CBE 80%, pH 6, 35 deg C, 18 hours; UV HPLC
Procedure, shortened: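 Clarified glucosidase lysate (prepared at pH 6) was incubated with pH 6-adjusted crude bark extract at 35 deg C with shaking for 18 hours. Reactions were quenched with MeCN containing 2% AcOH and hexanophenone, then analysed by UV HPLC.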

Molecule | Experiment 5-2 % conv
B1 | <0.5%
B2 | <0.5%
B3 | <0.5%
B4 | <0.5%
B5 | <0.5%

assay: Experiment 5-3: screening of additional glucosidases for deglycosylation with QS-18 in treated bark extract (80%) at pH 6 and 35 deg C; assay type: biochemical, Quillaja saponaria; details: TBE 80% (QS-21 approx. 4 g/L), pH 6, 35 deg C; UV HPLC
Procedure: Experiment 5-1 was repeated, replacing CBE with Treated Bark Extract (TBE) at pH 6. TBE was prepared from CBE by PVPP treatment and concentration, to provide TBE with a QS-21 concentration of approximately 4 g/L. TBE was adjusted to pH 6 by dropwise addition of 2M NaOH with stirring.

Molecule | Experiment 5-3 % conv
B1 | <0.5%
B2 | <0.5%
B3 | <0.5%
B4 | <0.5%
B5 | <0.5%
